In the test the target is 인간 IL-17A (human IL-17A, R&D system) (human, UniProt Q16552 20-155, limits assumed). As to the kind of experiment: cell-based or functional assay.
Sequence of 인간 IL-17A (human IL-17A, R&D system) (Q16552 20-155 limits assumed): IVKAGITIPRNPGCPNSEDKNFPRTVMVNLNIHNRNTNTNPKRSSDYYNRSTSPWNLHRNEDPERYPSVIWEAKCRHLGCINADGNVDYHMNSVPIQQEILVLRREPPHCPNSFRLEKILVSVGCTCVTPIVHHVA

Consider “세쿠키누맙 (secukinumab), made in-house (antibody)”, for which the IC50 of inhibition of IL-17A-dependent IL-6 secretion, HeLa cells was 4.16 nM.

B1: 7H3C11FW (antibody, V domains shown)
VH: QVQLVESGGGVVQPGRSLRLSCAASGFAFGSYTMHWVRQAPGKGLEWVTLISFDGRSKLYGDSVKGRFTISRDNSKNSLYLQMNSLRAEDTAVYYCARGSVRGEAAFDLWGQGTLVTVSS
VL: SYELTQPPSVSVSPGQTASITCSGDNLRTKYVSWYQQKPGQSPVLVIYQDTRRPSGIPERFSGSNSGNTATLTISGTQAMDEADYYCMTWDVDTTSMIFGGGTKLTVL
For B1, the “IC50 of inhibition of IL-17A-dependent IL-6 secretion, HeLa cells” value was 2.88 nM and the “fold better IC50 than secukinumab in-house, HeLa IL-6 assay” value is approximately 1.4 fold.
